Measurements as given in the supplement of paper PMC9170038.

Test system: K4 kissing-loop RNA reporter
Test: apparent KD of K4 kissing-loop reporter; higher = weaker reporter binding
Details: Eterna round: R107
Experimental: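 RNA-MaP round R107: designed RNA switches with theophylline, tryptophan, arginine or FMN aptamers are transcribed on-chip within common flanks. They are titrated with a labelled K4 kissing-loop RNA reporter in RNA-MaP buffer (100 mM Tris pH 7.5, 80 mM KCl, 4 mM MgCl2), without ligand or with the indicated ligand. Median apparent KD per design.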

[1] = input ligand: theophylline 20 uM
[2] = input ligand: tryptophan 2.4 mM
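Note: bound reporter read as fluorescence of individual clusters on recovered sequencing chips by microscopy, with normalized cluster intensities fitted with a binding model.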

Row | Sequence | apparent KD of K4 kissing-loop reporter (input ligand: FMN 200 uM) [nM] | apparent KD of K4 kissing-loop reporter (input ligand: arginine 13.2 mM) [nM] | apparent KD of K4 kissing-loop reporter (input ligand: none) [nM] | apparent KD of K4 kissing-loop reporter [1] [nM] | apparent KD of K4 kissing-loop reporter [2] [nM]
1 | CGCCAGUGAUGUUGGCGCAGGUUGCGGGAAGGAGCGCGCGUAAGCGCAGGUAGGUCGCCUGCAGGCCAGUGAUGUUGGCAAUCUG [Same State Arginine A GF 30] | 130 | 110 | 143 | 111 | 116
2 | CGCCAUAACACGGCCGCCACUCAUCAAGCUCAGUGAUGUUGAGCAGCAGCUGCAAUCGCGAUUACGAGGACCGGGUGCUGUCUGU [theeternabot_sameState_KL_Trp_B_50] | 286 | 329 | 314 | 357 | 231
3 | CGCGCCCAGCCGGAUACCAGUGACCCGCUGGGAACCGCGGGCCCAGAGUGAUGUUCGGGACACCCUUGGCAGCCGCCUGGGCGGU [#2 Same State - Theophylline B Attempt #10 (HarryS)] | 2380 | 576 | 1270 | 576 | 1570
4 | CGCGGCCGGCCGGAUACCAGUGACCCGCUGGCAACCGCGGGCCCAGAGUGAUGUUCGGGACACCCUUGGCAGCCGCCUGGGCGUG [#2 Same State - Theophylline B Attempt #4 (HarryS)] | 521 | 309 | 483 | 694 | 396
5 | CGCUGGGCGAGUGAUGUUCGCUCACGUGAUACCAGUGCCAUCCAACACCCUUGGCAGCACGCGGGCAGUGAUGUUGUCCUUGUAU [Exclusion Theophylline A GF6] | 130 | 117 | 127 | 109 | 119
6 | CGGACUGCAGGAAGGAGCGGCGGACGGAGUGAUGUUCCGGGUAGUGAUGUUACCAAACACCGCCAGGUAGGUCGCCUGUUGCUCC [Same State Arginine B GF8] | 161 | 134 | 170 | 146 | 147
7 | CGGAGUGAUGUUCCGUUAAUUCCUUAUUUACGAGGACCGGUACGGCCGCCACUCGAUUUUGCUUUUAUUUAAUGUUUGGAAAUUU [JR_SSTryptoA_Sub007] | 256 | 274 | 269 | 317 | 122
8 | CGGAUGUAGUGAUGUUAUAUUAGAUGUAGACGAGGACCGGUACGGCCGCCACUCGUGAUGGCUGCUAGCACGUUUCGAGGUUUGC [ExTryptoA.Cp] | 515 | 624 | 604 | 438 | 489
9 | CGGUUUGGUUGAGAGGUUGGGCCGAAUGAUACCAGUAUAUAAGAAUACCCUUGGCAGCAUAAGAAAGAUAUAGUGAUGUUGUAUA [SSTheophA.J] | 475 | 537 | 495 | 513 | 507
10 | CGUACAUCUUUUCGCGGAGUGAUGUUCUCGCGAGGACCGGUACGGCCGCCACUCGAAUUGUUAUCUGGCGAAAAUUGUCUAUAAA [theeternabot_exclusion_KL_Trp_A_33] | 393 | 273 | 352 | 318 | 410
11 | CGUGAAGCCCAGAGGUGAUGUAUAGUAUCGCGAGGACCGGUACGGCCGCCACUCGUGAAGAGAAAGGAGUGAUGUUCCGUAAUGG | 480 | 380 | 595 | 406 | 165
12 | CGUGAGUGAUGUUCACGAUGCUUCAAUCUAGAGGAUAUUCACGAUCGAAGAAGGCUGGACAAGUGCUGUCUCAUGACAGAUAAGG [FMN A SS t4] | 161 | 253 | 287 | 298 | 237
13 | CGUGGUGCCAAAGGAUAUCAUGCUAACGCGGUUGAGUGAUGUUCGACCCGAGAUAAGAGUGGGCAUUGAGAAGGUUGCGCAGAAG [theeternabot_sameState_KL_FMN_B_10] | 149 | 125 | 139 | 124 | 145
14 | CGUUGGAGUGAUGUUCCAGGUUGUACGGAUACCAGCCAAGCCAGCGGCCCUUGGCAGCCGACUAUUGCAGUGAUGUUGUGAUGCC [Same State Theophylline A GF 3] | 715 | 539 | 751 | 772 | 524
15 | CUACGACAGGAAGGAUAUCGUGUGGAGAGCAGUUAUUUAAAGGUAGUGAUGUUACAGGAGACUGUUCGAGAAGGUCCUCAGUUAC [theeternabot_exclusion_KL_FMN_B_32] | 104 | 98.6 | 119 | 93.3 | 103
16 | CUACGUCGAGCGGCCGCCACUAUGGGUUGCCAAGUAGUGAUGUUACUGAGCUUUUAAUGAUCCUUUAGGACCGGGCUUUGGGAGG [theeternabot_sameState_KL_Trp_B_46] | 281 | 203 | 227 | 269 | 174
17 | CUACUGAGUGAUGUUCAACAUAAUGUCGAUACCAGCACAUUUGCCUGCCCUUGGCAGCGACGCACCAGGACCUGAGAGUACUGGU [theeternabot_sameState_KL_Theo_A_13] | 567 | 637 | 623 | 612 | 410
18 | CUAUCCCGCCGUGUACGUAAUAUACGGUGCCGAGGACCGGUACGGCCGCCACUCGAUAAGCUUUGUCGGAGUGAUGUUCCGACCG [Maais] | 200 | 156 | 229 | 280 | 202
19 | CUCAAGUGAGGAUUUCGACAUCAAGAUGUGAAGGAUAUGUUACCAAACAGAAGGUCACGAUGUCAUCUAUGAGUGAUGUUCAGGA [theeternabot_sameState_KL_FMN_A_31] | 208 | 130 | 208 | 186 | 181
20 | CUCUGCUUCCCAGGGCUAGUGAUGUUAGCCCGAGGACCGGUACGGCCGCCACUCGAGUUAAGCAUCGACCGUGAAUGUUCGAAGC [theeternabot_exclusion_KL_Trp_A_48] | 138 | 143 | 139 | 179 | 140
21 | CUGACGCUGAUACGGUGGCCGGUGGUCGUGCGAGGACCGGUACGGCCGCCACUCGCAUGAGUGAUGUUCAUGUGUCGUCGUCGUC [#05 K4 Tryptophan A Exclusion] | 116 | 95.9 | 114 | 90.2 | 123

Row | Sequence | apparent KD of K4 kissing-loop reporter (input ligand: FMN 200 uM) [nM] | apparent KD of K4 kissing-loop reporter (input ligand: arginine 13.2 mM) [nM] | apparent KD of K4 kissing-loop reporter (input ligand: none) [nM] | apparent KD of K4 kissing-loop reporter [1] [nM] | apparent KD of K4 kissing-loop reporter [2] [nM]
22 | CUGUUGUAGACUGAUACCAGUCUCACAGCAGAUGUGUGGGACUUAGUGAUGUUAAGUACCGACCCUUGGCAGCAGUCUACGACCU [Theo B SS t6] | 428 | 374 | 377 | 452 | 394
23 | CUUAUUAUGUCGGCCGCCACUCAAUGAUAAUCCACUAAAUUGCGAUUCAGUGAUGUUGAAGUGCUGAGGACCGGGACUAUUAACA [theeternabot_sameState_KL_Trp_B_22] | 541 | 206 | 345 | 214 | 316
24 | CUUCGAUUAACAGAUACCAGUCAUACUGGAGCCUCACUCGAGUGAGUGAUGUUCACUUGAGACCCUUGGCAGCUGUUAGUCGAAG [Theo B Ex t1a] | 92.3 | 86.2 | 89.6 | 106 | 93.4
25 | CUUCGUAAAGGCCCAGUGAUGUUGGGCACUCGAGGACCGGUACGGCCGCCACUCGCUCCCUAAGUCGCGUGCGUGGGCCACCGCC [Anala] | 115 | 97 | 99.1 | 94.5 | 104
26 | CUUGAAAUGACUGAUACCAGUGAAAAUAUAUGUAGUGAUGUUAUAUACUAAUUUAAUAAGCGCCCUUGGCAGCAGUAUGAAUUAU [AstrosExc-theB#17] | 861 | 516 | 868 | 764 | 702
27 | CUUGAAAUGACUGAUACCAGUGAAAAUCUAUGUAGUGAUGUUAUAUACUAAUUUAAUAAGCGCCCUUGGCAGCAGUAUGAAUUAU [AstrosExc-theB#18] | 657 | 260 | 532 | 561 | 445
28 | CUUGCCCUUUCGGCCGCCACUCCGAGUGAUGUUGGGAUGUUCGGUGCAGCCAUUUAGAUGUCAGUGAGGACCGGGAAAUUAUGCG [theeternabot_exclusion_KL_Trp_B_9] | 220 | 128 | 251 | 150 | 196
29 | CUUGGUCCACGAAGGAGCGCCGUGCAGUGAUGUUGCAGUCAGAUCGAGUGAUGUUUCGGGCGGCAGGUAGGUCGCGUGGCCCUUU [Excusion Arginine B GF 25] | 655 | 362 | 768 | 640 | 464
30 | CUUGGUCUACGAAGGAGCGCCGUGCAGUGAUGUUGCAGUCAGAUCGAGUGAUGUUUCGGGCGGCAGGUAGGUCGCGUGGCCCUCU [Excusion Arginine B GF 27] | 574 | 437 | 725 | 692 | 591
31 | CUUGUACAAGUGAUGUUUGUUAUAUCCGAAGGAGCGUCGUAAUAGACAGGUAGGUCGCGGAGUUAGCUGGUUUUUUUAACAGCUA [JR_Nu_SSArginiA_Sub030] | 621 | 421 | 679 | 472 | 584
32 | CUUUGGAGUGAUGUUCCAGGUUGUACGGAUACCAGCCAAGCCAGAGGCCCUUGGCAGCCGAGUAUUGCAGUGAUGUUGCGAUGGG [Same State Theophylline A GF 2] | 304 | 239 | 282 | 335 | 261
33 | GAAAGAAAGUAUGAUACCAGACACCCGAGUGAUGUUCGGAACAGUGUGUUGUUCUUUUAAGUCCCUUGGCAGCAUAAAAGAAAAG [whbob_SS_Theo_B_sa86] | 135 | 143 | 151 | 171 | 110
34 | GAACGGCUGGCGGCCGCCACUGGUAUACGAGUGAUGUUCGGAUACACAUAGAAUAAGGUGAUUGACAGGACCGGGUCAGAGCCGG [#15 K4 Tryptophan B Same State] | 251 | 197 | 234 | 246 | 180
35 | GAAGGUCAAAGACCUUCGUGCACACCUGAUACCAGUCGCGAAAGCGACCCUUGGCAGCAGGGUAGUGAUGUUGCCAGUGCACAAA [#14 K4 Theophylline A Same State] | 865 | 735 | 797 | 595 | 732
36 | GAAUUUGCCGAUCAAAGUGAUGUUUUGGAUACCAGCCAUCAAGCUGGCCCUUGGCAGCCAACGUCGGCUGGCGACCGUGCGGACU [theeternabot_exclusion_KL_Theo_A_50] | 383 | 253 | 347 | 310 | 285
37 | GACACUCGGUGAUAAUAACCGUUACGCGAUACCAGCGUAACAGUACGCCCUUGGCAGCGCAGUGAUGUUGCGUGCCGAGUGUGAA [Theo A Ex Mod of Esbiceve] | 180 | 170 | 172 | 170 | 163
38 | GACAUACCUAUGGAGGGCCGAUCGAACAAACGAGGACCGGUACGGCCGCCACUCGUGGGCAGUGAUGUUGACCCUGGGAGGUAAG | 373 | 410 | 544 | 236 | 598
39 | GAGAAUCUCACGGCCGCCACUCACCUGUUAAUUGACAUCGACGGCCUCGACCAGUGAUGUUGUGUGAGGACCGGGUGUCUCGUGU [theeternabot_exclusion_KL_Trp_B_32] | 647 | 519 | 702 | 562 | 423
40 | GAGGUUUACGUAGGAUAUCGAUAAUGAGUAAAUGGAGUGAUGUUCCGAAAUUGAAUAAGAGAUGAGCGAGAAGGGCGGAUUAAGC [FMN B Same State; Euporia Solution] | 39.1 | 41.4 | 37.8 | 66.5 | 43.4
41 | GAGGUUUACGUAGGAUAUCGGUAAUGAGUAGAUGGAGUGAUGUUCCGAAAUUGAAUAGGAGAUGGGCGAGAAGGGCGGAUUAAGC [whbob_SS_FMNB__2th204] | 82.1 | 91.6 | 77.4 | 110 | 58.1
42 | GAUAAUAGAAUAGAUACCAGUCAAGACCUAGUGAUGUUAGGGAGAUAAGUAGAAUGAAUUGGCCCUUGGCAGCUAUAAUAGUAGG [Default title] | 92.4 | 106 | 80.5 | 129 | 73.4
